Test results from the DeepSol protein solubility set.

Assay: soluble on expression in E. coli; label from the status in PepcDB or PDB records

| Sequence | soluble on expression in E. coli |
| --- | --- |
| MSLTQNAVEKTPVTMLGLGAMGTALARTWLAAGHRLTVWNRTPARAAALAAEGARVADSAAEAVAANTLVIVCLLDDSSVDEVLAGIDLADTDLVNLTTSTPAQARARAEWANERGARYLDGGIMAVPPMIGVPEAGSYVFCSGSRELFERHQETLGIPAGTTYVGMDAGFAALHDMALLSAMYGMFAGVAHAFALIHKEDIDPTSLAPMLADWLVAMAPAVHQTADHLRSGDYTKGVVSTLAMQVAGTPTFLSTAEQQGVSPELLSPYFELMRRRLAEGSGEEDLTGVINLLVHEGHHHHHH | not soluble |
| MSKFGGATAKVIKGALKVRQTRAALTLTNEAVSRIRVLLAQQNDANALKIGVRQKGCNGLTYTLEYAKDKQKFDEEVEQDGIKVWIEPKAQLSLLGSEMDYVTDKLSSEFVFRNPNIKGTCGCGESFSI | not soluble |
| DIQALALLEILDPIREGAAETLDYLRSQEVGLKIISGDNPVTVSSIAQKAGFADYHSYVDCSKITDEELMAMAEETAIFGRVSPHQKKLIIQTLKKAGHTTAMTGDGVNDILALREADCSIVMAEGDPATRQIANLVLLNSDFNDVPE | not soluble |
| MSLKRSEFPENELWDLTALYKDRQDFLLAIEKALEDIKVFKKNYEGKLNCVEDFTSALMEIEHIYIQMSHIDTYAFMPQTTDFSNEEFAQISQAGSDFATKANVLLSFFNTALANADIKILDSLENNPHFKATIRQAKIQKQHLLSPEVEKALTNLNEVLNTPYDIYTKMRAGDFDMEDFEVDGKTYKNSFVTYENYFQNHENAEIREKSFRSFSKGLRKHQNAAAAAYLAKVKSEKLIADMRGYDSVFDYLLSEQEVDRSMFDRQIDLIMDEFGPVAQRFLKHIADVNGIEKMTFADWKLDIDNELNPEVSINDAYDLVMKSVAPLGKEYSQEVERYQKERWVDFAANANKDSGGYAADPYKVHPYVLMSWTGRMSDVYTLIHEIGHSGQFIFSDNHQSFFNTHMSTYYVEAPSTFNELLLSDYLENQFDTARQKRFALAHRLTDTYFHNFITHLLEAAFQRKVYTLIEEGGTFGAEQLNAIMKEVLTQFWGDAIEIDDDAALTWMRQAHYYMGLYSYTYSAGLVISTAGYLNLKNNPNGAKEWLAFLKSGGSRTPLETALLISADISTDKPLRDTINFLSNTVDQIINYSNLIEQEGHHHHHH | soluble |
| SACSRDTPEAPQSTSATSSAAPSTTSASTTAPSSASASSITQTSKVSSQAEAPTSVPPMLDSKHKNVQRAFEQFGALAPESLFAQFDTCDANGVQNSMACSGHDVGQFQFFKSDAKAASTTQLLTELRSSRVIEDTGRR | not soluble |
| MGSDKIHHHHHHMKAVIFDDFGSPDVLRIADVQRPVATTATVLVKVMAVAVNHVDTFVRSGTFKTALAAPHVAGRDLVGEVVASSQPDFQIGDQVWTNSMGYEGRMGATAEYVAVPTDRLYHVPDGVAPMPLVAAVHSAATAAIVLNDVMEICSGQTLLIEGAAGNVGRKLIQLAHQMGVTVVITASPRDFARCQQLGSTACYDYHAGFADQLTTDQWTFDHVIDTSGRVPLAINLALLRLGGQVTLITAPQDNQFEFPVRQFYMSQQRITGFVISHATVDQLAQAASRLNRAFSAGLLLDDQVSQRYFKDAAQCHAQLEAGTDHHQRFVLLPS | not soluble |
| MSLNFLDFEQPIAELEAKIDSLTAVSRQDEKLDINIDEEVHRLREKSVELTRKIFADLGAWQIAQLARHPQRPYTLDYVRLAFDEFDELAGDRAYADDKAIVGGIARLDGRPVMIIGHQKGRETKEKIRRNFGMPAPEGYRKALRLMQMAERFKMPIITFIDTPGAYPGVGAEERGQSEAIARNLREMSRLGVPVVCTVIGEGGSGGALAIGVGDKVNMLQYSTYSVISPEGCASILWKSADKAPLAAEAMGIIAPRLKELKLIDSIIPEPLGGAHRNPEAMAASLKAQLLADLADLDVLSTEDLKNRRYQRLMSYGYALEHHHHHH | not soluble |
| MRVDEFLKERNINVGDFVRITKEEDGEEVTYEGYIMPPYELSAGDTLVLKLENGYNIGIALEKIRRIEVLERAKVKPEVHFEALIEGKPGLPEVTIIGTGGTIASRIDYETGAVYPAFTAEELAKALPEIFEVANVKPKLLFNIFSEDMKPKHWVKIAHEVAKALNSGDYGVVVAHGTDTMGYTAAALSFMLRNLGKPVVLVGAQRSSDRPSSDAAMNLICSVRMATSEVAEVMVVMHGETGDTYCLAHRGTKVRKMHTSRRDAFRSINDVPIAKIWPNGEIEFLRKDYRKRSDEEVEVDDKIEEKVALVKVYPGISSEIIDFLVDKGYKGIVIEGTGLGHTPNDIIPSIERAVEEGVAVCMTSQCIYGRVNLNVYSTGRKLLKAGVIPCEDMLPETAYVKLMWVLGHTQNLEEVRKMMLTNYAGEITPYTRFDTYLR | soluble |
| GQLQEPYETVTIDVEEQHQGPIMEKMGVRKAELTDMAPDGTGRIRMDFIMPSRGLIGFQTEFMTLTSGSGLIYHTFFEYGPHKGGEIGQRKNGVMIGNATGKALTNAIFNLQSRGRMLIGHGVDIYEG | not soluble |
| MGSDKIHHHHHHMAALENKIDFAIAFAVNNANPNGDPLNGNRPRTTSEGLGEVSDVALKRKIRNRLQDAGESVFVQSDDRSDDGAKSLSDRFNTYLKTLPKDEQKQKNVVFGKVCERWLDVRSFGQVFAFKKAKDTDEVSIGVRGPVSIQPAFSINPIAIDDVQITKSVNSETTDSGKKSSDTMGMKYRVSGRAVYVTYGSISPQLAERTGFSAEDAEKIKEALVTLFENDESSARPSGSMEVLDVVWFAHNCKGGQYSSAKVHRSVSVDADGTVNVDDASIPGLRYEVIEGR | not soluble |
| MVHYKLSYFPIRFAGEIPRQILAYAGQKFEDHRIPQADWPALKSTMPFGTLPVLYQDGKPLGQSHAISRFLARQFGINGRCPWEEAQVNAIADQFKDYLNDIRSYNLVKMGFAQGDADALYKDTFLPNFKKNYQFFTNFLKASGSGFLIGDSVTWVDLLIAQHTSDLLSDSGSVFAASQSLLDEFPELKAHQKKIHSIPNIKKWVETRPVTPF | not soluble |
| SIRTSFIKLPGSDGSRYCDSWRLAAETNNVGTWDLIPSICVDSVAEYLNGDQFLSDYSVIVDYALAFAKSVEISGDGKDVWIFDIDETLLTNIDYYKAHGYGSEPYDDNKFSEWVEQGTAPAFDASLRLYNALKKLGFTIILLTGRDEHQRTSTETNLRDAGYSGWERLLLRGPNDQGKSATNYKSEQRSKLIEEGFKIRGNSGDQWSDLQGFAVADRSFKVPNPMYYIP | soluble |
| MHHHHHHSSGVDLGTENLYFQSNAMANPLYHKHIISINDLSRDELELVLRTAASLKKTPQPELLKHKVIASCFFEASTRTRLSFETSIHRLGASVVGFSDSSNTSLGKKGETLADTMSVISTYVDAIVMRHPQEGASRLAAQFSGNVPIVNAGDGANQHPTQTLLDLFTIQETQGRLDNINIAMVGDLKYGRTVHSLTQALAKFNGNHFFFIAPDALAMPAYILQMLEEKEIEYSLHESLEEVVPELDILYMTRVQKERLDPSEYANVKAQFILRSSDLTGARDNLKVLHPLPRIDEITTDVDKTPYAYYFQQAGNGIFARQALLALVLNAELAL | soluble |
| MSQQPGVLPENMKRYMGRDAQRMNILAGRIIAETVRSTLGPKGMDKMLVDDLGDVVVTNDGVTILREMSVEHPAAKMLIEVAKTQEKEVGDGTTTAVVVAGELLRKAEELLDQNVHPTIVVKGYQAAAQKAQELLKTIACEVGAQDKEILTKIAMTSITGKGAEKAKEKLAEIIVEAVSAVVDDEGKVDKDLIKIEKKSGASIDDTELIKGVLVDKERVSAQMPKKVTDAKIALLNCAIEETASEMLKDMVAEIKASGANVLFCQKGIDDLAQHYLAKEGIVAARRVKKSDMEKLAKATGANVITNIKDLSAQDLGDAGLVEERKISGDSMIFVEECKHPKAVTMLIRGTTEHVIEEVARAVDDAVGVVGCTIEDGRIVSGGGSTEVELSMKLREYAEGISGREQLAVRAFADALEVIPRTLAENAGLDAIEILVKVRAAHASNGNKCAGLNVFTGAVEDMCENGVVEPLRVKTQAIQSAAESTEMLLRIDDVIAAEKLRGAPDMGDMGGMPGMGGMPGMM | soluble |
| MGSDKIHHHHHHMEDNDWKLLKIIEISMKNHEWVPIQDLRRKTGFHEKEIVFRLGRLNKFKFTNKSNYGYRLSHWGYDALAMNAFIKKELIAGIGGKVGVGKEGDVYHVLLTNHREAVLKFHQLGRTCFSMGKRYREYLANKRHISWLYASRLTAAREFEVLNMLFPVVKVPEPIEQNRHAIIMGKLHGEELKRVNLLEINVDPEEFFWKLMVEVKKTYKLGIIHGDLSEFNILIDSEGDFVIIDWPQAIEVGKKGKLDKLPFEEVEYDEEFYLKRDIENVVRYFKKYGIDKDIDKLYNYVIGDITSENI | not soluble |
| MAHHHHHHMLSRLSERCTIATGLEQVLRHYVWSAAWLRDAEPAAAASENIDLSGLMERAGRAAYDVFANLYTSQKHWLILVGSGNNGGDGYVIARHAREAGKIVTVLRMPHSKPLPTEAASAQHAWKAVGGTESTMSPGAPLQLPADVDLIVDGLLGTGICGPPREQYADVIRHINGLPVPRVAIDIPSGLNAETGEAAGACVKADHTATFICLKPGLLTGQAKDYVGQLHYRSLGLEDWMTAPERMRVALCRRVALDDVYEYFGIRRSALAHKGSCGKAILVGGDHGFGGAALMSAEACVTVGAGLTRVLTRPEYAAPLLTRCPEAMVTAVETDTGEQLKQQMLEAFEWASTLAVGPGLGTGAYGQAALTAALRHAELHQDKTLVLDADALNLLAGCLHGREGGAAAGARKHLPVLPNSIITPHPGEAARLLDCRVADVEKDRLAAARRLAAILGGTCLLKGPGTIVHCHSSAKTAIVDAGNAGMASGGMGDVLTGLLAGLAAQRMHDTFDTTCAGALVHGVAADMVAAEDGRGTRGIRATELIHRVPLIVNASGPSPASRQRPSGQ | soluble |
| VGFAPELYCGLENCYDVLEVNREEFDKQKLAKAYRALARKHHPDRVKNKEEKLLAEERFRVIATAYETLKDDEAKTNYDYYLDHPDQRFYNYYQYYRLRAAPKVDL | soluble |
| MIASLDELYHSELFFLPVMDENARLVGLEIIATFAAEDGAVRMPTELVAPRLSVEEQYCLFVEKLALLETCQHFFIQHKLIAWLNLPPAISDLLLLDSELFSRAARFPFLELAINENYPGLNQGKNNETLANLAMHFPLMLANFGAGEASTKAIFDGLFKRVMLDKNFIQQRAEMISFEPFMHAIVAQISSSCESLMIAGIDTEAMFARAAPLGFSAFQGGLWPPVPVSQLIKLVQR | not soluble |
| MSLNNRIIYVVSDSVGETAELVVKAALSQFNGSADDTHVRRIPYVEDIGTINEVISLAKADGGIICFTLVVPEIREYLIAEAEKANVLYYDIIGPLIDKMETAYGLTAKYEPGRVRQLDEDYFKKVEAIEFAVKYDDGRDPRGILKADIVLIGVSRTSKTPLSQYLAHKRLKVANVPIVPEVDPPEELFNVDPKKCIGLKISPDKLNHIRKERLKSLGLNDKAIYANINRIKEELEYFEKIVDRIGCQVVDVSNKAVEETANIIHHLKTKNIEGHHHHHH | soluble |
| MAGEKFQKKGKEKWKEKVWYTVEAPPYLGSKEVSVALGEDSNSMVNRVVEVPISELTGNFKKSNEKALFRITNCEGTKCKTIFIGHYIGDDYIRRLVRRRKERIDIIEDVKTSDNSIITVKIVVVTDGKVTNTKKFQIRKVLTDFILNKGLSLPYSEFVRYLIGDDIYNDMISATKDIYPLKKIEVRKSELVSLSGISEIHAGSQNSGEEPVVQNLEHHHHHH | not soluble |
| MRREIRRICGFDVSDRWINLFRKKHGIRYFSGRRHADKKDKTIILSALDVTKMKTTNFLKKRRILRTSRKEYADVDLQVNKEIVRRQNKGERLTNPWIKEYAQYVAYQLHPEIPDIAKFFDANWLYRFKRRYCVELKVALNDFLYDLNSIFQPRSPEENTRSTPQTTSNEDIKSSATSMEVVTSPNYLFPHHYFNLFDQNGCGASIVKQEPTREN | not soluble |
| MVTDEAGLLSNAQEEVMNGRLRAIRSSHAVEFAVVTLPSIGDAPLEDFTLKLARQWGVGNEKNNNGLLLVLVLDQRRVRFETGYGLEGYLPDGLLSRIIHDRMIPHFRSGNYAEGLSEGVLAVQQVLDGSYDVKPLEHHHHHH | not soluble |
